This test deals with HIV-1 BaL.01 Env gp160 on pseudovirus (HIV-1 BaL.01). The test is described as follows: cell-based or functional assay.

Bridges are numbered along the chain shown (N, C = ends). Where no end group is shown, it is not given here. [ ]: non-standard residue; d: D form. triazolo‑proline = not defined here

B1: cPT 5 (peptide)
peptide: [dD]NI[triazolo‑proline]WK-NH2
modifications: lactam 1-6; not fully specified; reading uncertain
B1 came in with an HIV-1 infection inhibition, fold decrease in activity against cPT 3 of 7 fold.

B2: cPT 4 (peptide)
peptide: DNI[triazolo‑proline]W[dK]-NH2
modifications: lactam 1-6; not fully specified; reading uncertain
As to B2, the HIV-1 infection inhibition, fold decrease in activity against cPT 3 is above 50 fold.

B3: cPT 16 (peptide)
peptide: DNIPWK-NH2
modifications: lactam 1-6; not fully specified (residue 4); also: Pro4 triazole substituent: phenyl joined through two spacer atoms
On to B3, for which the HIV-1Bal.01 infection inhibition IC50 was found to be 2020 nM.

B4: cPT 38 (peptide)
peptide: NIPWK
modifications: N-terminus of Asn 1 acylated by succinic acid whose other carboxyl is amide-bonded to Lys 5 side-chain amine (macrocycle; replaces Asp, no primary NH2); Pro 3 is 4-(4-(4-(thiophen-2-yl)phenyl)-1H-1,2,3-triazol-1-yl)proline; C-terminal amide
B4 gave an HIV-1Bal.01 cell infection inhibition IC50 of 882 nM and an HIV-1 infection inhibition, fold decrease in potency against cPT 36 of 8 fold.

B5: cPT 14 (peptide)
peptide: DNI[triazolo‑Pro][benzothienylalanine]K-NH2
modifications: lactam 1-6; not fully specified
Regarding B5, the HIV-1Bal.01 infection inhibition IC50 stood at 170 nM.

B6: cPT 31 (peptide)
peptide: DNIPWK-NH2
modifications: lactam 1-6; not fully specified (residue 4)
With B6, the HIV-1Bal.01 infection inhibition IC50 worked out at 1800 nM.

B7: cPT 33 (peptide)
peptide: DNIPWK-NH2
modifications: lactam 1-6; not fully specified (residue 4)
As to B7, the HIV-1Bal.01 infection inhibition IC50 amounted to 6000 nM.

B8: cPT 37 (peptide)
peptide: DNI[4‑(4-((2,2'-bithiophen)-5-yl)-1H-1,2,3-triazol-1-yl)proline]WK-NH2
modifications: lactam 1-6
Molecule B8 displayed an HIV-1Bal.01 infection inhibition IC50 of 405 nM.

B9: cPT 32 (peptide)
peptide: DNIPWK-NH2
modifications: lactam 1-6; not fully specified (residue 4)
With B9, the HIV-1Bal.01 infection inhibition IC50 came to 7300 nM.

B10: cPT 30 (peptide)
peptide: DNIPWK-NH2
modifications: lactam 1-6; not fully specified (residue 4); also: Pro4 triazole substituent: isoquinoline moiety
Turning to B10, the HIV-1Bal.01 infection inhibition IC50 was found to be 5000 nM.

(Values after US20220204565A1.)
